Consider 2 molecules from patent publication US20170158755A1 (PROTHENA BIOSCIENCES, published 2017).

In test [1] the target is T1, human LAMA4 LG4-5 modules displayed on 293 cells (human, UniProt Q16363 1453-1821).
T1 construct: pDisplay construct on 293 cells; vector tags and anchor not written here
T1 sequence: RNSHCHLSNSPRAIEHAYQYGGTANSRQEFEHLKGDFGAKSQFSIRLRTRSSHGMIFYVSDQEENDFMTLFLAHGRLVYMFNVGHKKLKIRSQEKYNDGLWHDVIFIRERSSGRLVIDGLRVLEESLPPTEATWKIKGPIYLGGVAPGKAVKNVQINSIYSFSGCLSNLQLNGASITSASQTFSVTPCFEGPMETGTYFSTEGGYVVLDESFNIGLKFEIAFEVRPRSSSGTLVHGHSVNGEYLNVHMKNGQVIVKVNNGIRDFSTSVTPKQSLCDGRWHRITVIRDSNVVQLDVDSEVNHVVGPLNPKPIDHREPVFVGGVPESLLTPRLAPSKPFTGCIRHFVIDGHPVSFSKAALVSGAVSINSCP
Briefly: flow cytometry on 293 cells displaying LAMA4 G-domain variants; % binding. The source says:
(§1) LGde1 has a full-length G domain (i.e., LG1-5) with LG1 deleted, LGde2 has a full-length G domain with LG2 deleted, and LGde3 has a full-length G domain with LG3 deleted. Recombinant MCAM-Fc protein was able to specifically bind 293 cells expressing LAMA4 variants LG1-5, LG1-3, and LGde 1 (LG23), but not 293 cells expressing LAMA 4 variants LG4-5, LGde2 (LG13), or LGde3 (LG12).

The target of the next test is recombinant laminin 411 (human, UniProt P07942 22-1786; P11047 34-1609, limits assumed). Briefly: cell-based or functional assay.
Sequence of recombinant laminin 411 (chain, as listed by the source limits assumed, chain 1 of 3): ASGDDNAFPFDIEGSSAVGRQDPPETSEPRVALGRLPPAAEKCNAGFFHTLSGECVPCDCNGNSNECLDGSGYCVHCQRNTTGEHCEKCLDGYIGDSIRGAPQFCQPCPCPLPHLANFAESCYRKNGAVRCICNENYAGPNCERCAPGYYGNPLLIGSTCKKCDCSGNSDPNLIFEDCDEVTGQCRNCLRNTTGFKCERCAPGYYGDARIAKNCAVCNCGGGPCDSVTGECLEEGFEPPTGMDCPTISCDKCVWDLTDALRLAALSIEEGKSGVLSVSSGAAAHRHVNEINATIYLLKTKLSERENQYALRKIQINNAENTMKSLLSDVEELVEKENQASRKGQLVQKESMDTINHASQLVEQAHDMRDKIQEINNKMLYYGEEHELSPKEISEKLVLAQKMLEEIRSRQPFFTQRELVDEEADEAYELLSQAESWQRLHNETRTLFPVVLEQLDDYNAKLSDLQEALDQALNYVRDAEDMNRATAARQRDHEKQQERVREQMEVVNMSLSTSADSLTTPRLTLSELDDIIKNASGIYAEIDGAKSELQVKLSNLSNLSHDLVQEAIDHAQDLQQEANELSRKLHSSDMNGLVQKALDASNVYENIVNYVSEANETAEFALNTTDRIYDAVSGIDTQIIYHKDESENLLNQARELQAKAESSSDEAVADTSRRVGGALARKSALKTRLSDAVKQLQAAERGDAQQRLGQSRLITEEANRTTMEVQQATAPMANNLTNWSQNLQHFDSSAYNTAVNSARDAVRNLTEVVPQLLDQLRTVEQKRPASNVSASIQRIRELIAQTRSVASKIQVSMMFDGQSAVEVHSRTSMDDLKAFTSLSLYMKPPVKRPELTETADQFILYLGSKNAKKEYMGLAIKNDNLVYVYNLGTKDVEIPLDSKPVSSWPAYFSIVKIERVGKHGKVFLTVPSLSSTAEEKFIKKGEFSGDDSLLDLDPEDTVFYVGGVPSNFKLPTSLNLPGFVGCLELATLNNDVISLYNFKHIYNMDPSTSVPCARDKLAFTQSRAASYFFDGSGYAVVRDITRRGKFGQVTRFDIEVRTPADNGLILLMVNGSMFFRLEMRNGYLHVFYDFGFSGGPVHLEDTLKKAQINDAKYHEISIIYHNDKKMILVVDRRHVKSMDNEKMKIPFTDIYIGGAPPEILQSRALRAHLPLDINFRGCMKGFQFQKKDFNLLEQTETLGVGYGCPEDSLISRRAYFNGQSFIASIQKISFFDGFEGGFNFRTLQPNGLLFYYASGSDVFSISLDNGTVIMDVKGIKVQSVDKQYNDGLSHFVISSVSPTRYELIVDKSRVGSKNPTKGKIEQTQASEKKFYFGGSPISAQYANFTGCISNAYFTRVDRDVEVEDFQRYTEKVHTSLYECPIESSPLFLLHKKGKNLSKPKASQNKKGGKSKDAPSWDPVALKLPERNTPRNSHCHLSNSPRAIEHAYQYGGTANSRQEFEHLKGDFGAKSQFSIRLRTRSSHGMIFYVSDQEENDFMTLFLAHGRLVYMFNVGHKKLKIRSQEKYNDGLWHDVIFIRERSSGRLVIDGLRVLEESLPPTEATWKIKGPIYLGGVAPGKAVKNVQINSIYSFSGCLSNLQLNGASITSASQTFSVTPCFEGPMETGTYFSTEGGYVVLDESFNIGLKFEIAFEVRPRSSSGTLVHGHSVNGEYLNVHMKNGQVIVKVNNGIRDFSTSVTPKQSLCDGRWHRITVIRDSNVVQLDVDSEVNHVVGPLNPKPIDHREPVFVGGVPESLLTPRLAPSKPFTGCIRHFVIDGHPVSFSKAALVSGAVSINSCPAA
Sequence of recombinant laminin 411 (P07942 22-1786 limits assumed, chain 2 of 3): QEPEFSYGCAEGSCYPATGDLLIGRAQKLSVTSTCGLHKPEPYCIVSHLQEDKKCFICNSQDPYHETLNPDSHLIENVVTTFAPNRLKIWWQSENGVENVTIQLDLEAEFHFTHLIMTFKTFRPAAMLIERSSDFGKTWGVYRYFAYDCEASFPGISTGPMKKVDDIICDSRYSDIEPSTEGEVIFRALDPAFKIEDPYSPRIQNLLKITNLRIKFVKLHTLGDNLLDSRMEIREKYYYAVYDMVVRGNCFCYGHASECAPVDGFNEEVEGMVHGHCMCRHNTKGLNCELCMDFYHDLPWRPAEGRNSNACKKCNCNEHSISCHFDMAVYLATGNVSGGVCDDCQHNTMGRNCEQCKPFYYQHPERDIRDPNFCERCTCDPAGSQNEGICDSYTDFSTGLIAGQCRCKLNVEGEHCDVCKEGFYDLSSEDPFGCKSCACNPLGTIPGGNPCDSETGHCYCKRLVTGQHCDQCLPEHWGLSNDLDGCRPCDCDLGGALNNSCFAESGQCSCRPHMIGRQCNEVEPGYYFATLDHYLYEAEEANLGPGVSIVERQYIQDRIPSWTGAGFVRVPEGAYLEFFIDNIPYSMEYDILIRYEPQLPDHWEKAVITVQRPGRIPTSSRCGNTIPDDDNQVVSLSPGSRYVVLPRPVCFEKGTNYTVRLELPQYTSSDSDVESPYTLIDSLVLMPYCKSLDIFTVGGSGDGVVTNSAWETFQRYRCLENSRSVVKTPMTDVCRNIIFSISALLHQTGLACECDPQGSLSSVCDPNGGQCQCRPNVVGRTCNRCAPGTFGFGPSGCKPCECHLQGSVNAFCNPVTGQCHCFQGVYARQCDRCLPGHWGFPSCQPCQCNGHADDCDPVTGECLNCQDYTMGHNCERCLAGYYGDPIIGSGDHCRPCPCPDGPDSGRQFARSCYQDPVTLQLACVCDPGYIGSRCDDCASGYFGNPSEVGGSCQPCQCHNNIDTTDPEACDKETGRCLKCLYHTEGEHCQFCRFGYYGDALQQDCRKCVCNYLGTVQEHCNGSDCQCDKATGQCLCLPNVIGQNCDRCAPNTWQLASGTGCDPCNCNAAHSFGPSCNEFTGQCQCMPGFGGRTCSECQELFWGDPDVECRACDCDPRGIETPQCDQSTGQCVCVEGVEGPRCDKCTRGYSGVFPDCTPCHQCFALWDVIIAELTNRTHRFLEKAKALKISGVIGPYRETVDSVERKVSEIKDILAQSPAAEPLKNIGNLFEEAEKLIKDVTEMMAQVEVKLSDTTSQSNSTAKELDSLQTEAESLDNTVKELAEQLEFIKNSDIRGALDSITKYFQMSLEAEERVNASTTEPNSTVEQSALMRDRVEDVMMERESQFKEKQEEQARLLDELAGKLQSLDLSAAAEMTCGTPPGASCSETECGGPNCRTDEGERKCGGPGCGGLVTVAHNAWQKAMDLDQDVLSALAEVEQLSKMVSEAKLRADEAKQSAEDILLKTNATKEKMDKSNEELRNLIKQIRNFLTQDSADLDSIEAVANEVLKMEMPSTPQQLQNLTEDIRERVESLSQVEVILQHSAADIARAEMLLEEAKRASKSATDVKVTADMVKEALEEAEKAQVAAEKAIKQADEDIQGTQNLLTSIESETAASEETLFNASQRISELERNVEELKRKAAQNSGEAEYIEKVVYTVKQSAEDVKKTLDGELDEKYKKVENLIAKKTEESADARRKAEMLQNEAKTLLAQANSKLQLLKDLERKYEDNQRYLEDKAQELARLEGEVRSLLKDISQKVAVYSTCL
Sequence of recombinant laminin 411 (P11047 34-1609 limits assumed, chain 3 of 3): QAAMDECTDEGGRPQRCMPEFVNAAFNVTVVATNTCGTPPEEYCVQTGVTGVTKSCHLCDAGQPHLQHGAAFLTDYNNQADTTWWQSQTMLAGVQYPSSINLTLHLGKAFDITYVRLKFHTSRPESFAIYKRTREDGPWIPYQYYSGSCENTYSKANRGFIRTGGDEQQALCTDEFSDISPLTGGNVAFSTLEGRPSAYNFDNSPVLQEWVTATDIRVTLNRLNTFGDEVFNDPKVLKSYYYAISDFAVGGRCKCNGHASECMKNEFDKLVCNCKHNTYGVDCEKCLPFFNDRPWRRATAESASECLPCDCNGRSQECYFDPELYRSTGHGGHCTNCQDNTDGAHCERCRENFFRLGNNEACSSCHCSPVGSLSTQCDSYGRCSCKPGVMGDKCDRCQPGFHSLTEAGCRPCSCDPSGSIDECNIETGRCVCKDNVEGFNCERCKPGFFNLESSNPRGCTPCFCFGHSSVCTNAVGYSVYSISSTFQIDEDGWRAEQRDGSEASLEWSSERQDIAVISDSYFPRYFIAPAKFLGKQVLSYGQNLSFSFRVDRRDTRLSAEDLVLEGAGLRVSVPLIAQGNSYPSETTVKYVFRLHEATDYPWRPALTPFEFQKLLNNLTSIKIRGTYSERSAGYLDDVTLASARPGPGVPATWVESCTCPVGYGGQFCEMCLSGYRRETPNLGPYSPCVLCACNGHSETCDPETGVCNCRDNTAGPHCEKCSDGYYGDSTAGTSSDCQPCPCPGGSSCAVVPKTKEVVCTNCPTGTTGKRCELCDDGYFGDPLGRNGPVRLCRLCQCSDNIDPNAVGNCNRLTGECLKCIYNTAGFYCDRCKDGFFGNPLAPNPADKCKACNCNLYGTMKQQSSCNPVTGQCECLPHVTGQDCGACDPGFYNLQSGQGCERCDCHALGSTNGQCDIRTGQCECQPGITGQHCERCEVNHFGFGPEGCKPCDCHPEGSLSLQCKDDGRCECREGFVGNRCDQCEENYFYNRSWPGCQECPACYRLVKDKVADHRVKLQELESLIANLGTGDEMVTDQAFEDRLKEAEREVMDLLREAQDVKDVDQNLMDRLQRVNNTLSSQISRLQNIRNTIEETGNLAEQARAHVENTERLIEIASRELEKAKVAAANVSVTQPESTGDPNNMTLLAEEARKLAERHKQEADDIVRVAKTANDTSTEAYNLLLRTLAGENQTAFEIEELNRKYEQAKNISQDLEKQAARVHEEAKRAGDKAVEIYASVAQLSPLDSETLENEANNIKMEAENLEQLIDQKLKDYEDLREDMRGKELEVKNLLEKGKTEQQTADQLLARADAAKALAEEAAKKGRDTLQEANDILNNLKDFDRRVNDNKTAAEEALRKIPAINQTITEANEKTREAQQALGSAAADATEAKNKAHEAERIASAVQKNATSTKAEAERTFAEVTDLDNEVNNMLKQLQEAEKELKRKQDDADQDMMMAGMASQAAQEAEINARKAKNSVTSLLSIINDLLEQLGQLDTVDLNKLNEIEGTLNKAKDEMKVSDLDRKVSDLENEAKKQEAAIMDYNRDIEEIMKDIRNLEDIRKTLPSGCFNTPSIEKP
Test [2] has as its target T2, human LAMA4 G domain (LG1-5) displayed on 293 cells (human, UniProt Q16363 830-1821).
T2 construct: the vector's tags and membrane anchor are not written here; also called LAMA4-displaying human 293 cells; full length
T2 sequence: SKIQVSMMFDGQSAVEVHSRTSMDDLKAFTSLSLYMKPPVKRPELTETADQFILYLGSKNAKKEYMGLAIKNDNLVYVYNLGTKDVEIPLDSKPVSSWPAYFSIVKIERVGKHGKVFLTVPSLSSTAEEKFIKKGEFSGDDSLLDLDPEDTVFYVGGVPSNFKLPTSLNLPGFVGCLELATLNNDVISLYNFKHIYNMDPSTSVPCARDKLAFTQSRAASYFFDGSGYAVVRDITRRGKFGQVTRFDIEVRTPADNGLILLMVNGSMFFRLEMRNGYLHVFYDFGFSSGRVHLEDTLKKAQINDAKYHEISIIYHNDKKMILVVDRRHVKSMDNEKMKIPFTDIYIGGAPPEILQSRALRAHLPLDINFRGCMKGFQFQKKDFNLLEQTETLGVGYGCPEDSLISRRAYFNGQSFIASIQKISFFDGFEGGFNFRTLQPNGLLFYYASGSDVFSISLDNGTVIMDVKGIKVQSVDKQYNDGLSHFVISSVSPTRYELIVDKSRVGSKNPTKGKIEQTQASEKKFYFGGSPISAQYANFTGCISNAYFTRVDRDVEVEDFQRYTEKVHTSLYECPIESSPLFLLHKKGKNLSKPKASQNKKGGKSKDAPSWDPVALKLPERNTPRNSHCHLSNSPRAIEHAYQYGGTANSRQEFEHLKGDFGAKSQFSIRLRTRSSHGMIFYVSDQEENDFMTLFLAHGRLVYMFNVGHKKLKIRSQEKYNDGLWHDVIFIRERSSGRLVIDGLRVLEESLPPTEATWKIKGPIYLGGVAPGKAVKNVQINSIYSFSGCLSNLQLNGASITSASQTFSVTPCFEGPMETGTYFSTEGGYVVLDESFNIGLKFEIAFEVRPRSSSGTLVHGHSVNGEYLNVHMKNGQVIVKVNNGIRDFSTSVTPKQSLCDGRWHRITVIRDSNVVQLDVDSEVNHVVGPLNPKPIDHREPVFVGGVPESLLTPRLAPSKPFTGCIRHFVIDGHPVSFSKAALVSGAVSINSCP
Briefly: flow cytometry on 293 cells displaying LAMA4 G-domain variants; % binding.
Excerpt: as §1
For orientation: Flow cytometry measures light scatter and fluorescence of single cells or particles in a stream.

B1: mouse monoclonal antibody 19C12 (antibody, V domains shown)
VH: QVQLQQSGAELVKPGASVKISCKASGYAFSTYWMNWVKQRPGEGLEWIGQIYPGDGDTNYNGKFKGKATLTADKSSSTAYMQLSSLTSEDSAVYFCARSDGYYDYWGQGTTLTVSS
VL: NIVLTQSPASLAVSLGQRATISCRASESVDSYGTSFMHWYQQKPGQPPKLLICLASSLESGVPARFSGSGSRTDFTLTIDPVEADDAATYYCQQNNEDPPTFGAGTKLELKR
notes: Mouse hybridoma antibody; Mouse IgG2b was used as its isotype control; also called m19C12
With B1, the binding result in test [1] is “no binding”. For the same molecule, the “laminin-411-induced pAkt activation (pAkt/Akt ratio by immunoblot) in WM266.4 cells, 20 ug/ml antibody” value with recombinant laminin 411 is around 50 % inhibition.

B2: mouse MCAM-Fc fusion protein (Fc fusion, UniProt Q8R2Y2 24-563, looked up)
chain: VPGEEKQPVPTPDLVEAEVGSTALLKCGPSRASGNFSQVDWFLIHKERQILIFRVHQGKGQREPGEYEHRLSLQDSVATLALSHVTPHDERMFLCKSKRPRLQDHYVELQVFKAPEEPTIQANVVGIHVDRQELREVATCVGRNGYPIPQVLWYKNSLPLQEEENRVHIQSSQIVESSGLYTLKSVLSARLVKEDKDAQFYCELSYRLPSGNHMKESKEVTVPVFYPAEKVWVEVEPVGLLKEGDHVTIRCLTDGNPQPHFTINKKDPSTGEMEEESTDENGLLSLEPAEKHHSGLYQCQSLDLETTITLSSDPLELLVNYVSDVQVNPTAPEVQEGESLTLTCEAESNQDLEFEWLRDKTGQLLGKGPVLQLNNVRREAGGRYLCMASVPRVPGLNRTQLVSVGIFGSPWMALKERKVWVQENAVLNLSCEASGHPQPTISWNVNGSATEWNPDPQTVVSTLNVLVTPELLETGAECTASNSLGSNTTTIVLKLVTLTTLIPDSSQTTGLSTLTVSPHTRANSTSTEKKLPQPESKGVV
notes: extracellular domain; Made in house; also called mMCAM-Fc; 650-conjugated mouse MCAM-Fc; not shown: human IgG1 (Fc part of the fusion)
For the molecule B2, the binding result in test [2] is “binds”.
